Results reported in patent US20260183411A1, “TARGETING SORTILIN” (priority 2024, published 2026).
Where no end group is shown, it is not given here. [ ]: non-standard residue; d: D form. Cba = N[C@@H](CC1CCC1)C(=O)O; Tle = CC(C)(C)[C@H](N)C(=O)O

T1: cyno SORT1 (76-753)-His (cyno, UniProt A0A2K5VHG2 74-751)
T1 construct: range 76-753; Amine-coupled to CM5 chip for SPR
T1 sequence: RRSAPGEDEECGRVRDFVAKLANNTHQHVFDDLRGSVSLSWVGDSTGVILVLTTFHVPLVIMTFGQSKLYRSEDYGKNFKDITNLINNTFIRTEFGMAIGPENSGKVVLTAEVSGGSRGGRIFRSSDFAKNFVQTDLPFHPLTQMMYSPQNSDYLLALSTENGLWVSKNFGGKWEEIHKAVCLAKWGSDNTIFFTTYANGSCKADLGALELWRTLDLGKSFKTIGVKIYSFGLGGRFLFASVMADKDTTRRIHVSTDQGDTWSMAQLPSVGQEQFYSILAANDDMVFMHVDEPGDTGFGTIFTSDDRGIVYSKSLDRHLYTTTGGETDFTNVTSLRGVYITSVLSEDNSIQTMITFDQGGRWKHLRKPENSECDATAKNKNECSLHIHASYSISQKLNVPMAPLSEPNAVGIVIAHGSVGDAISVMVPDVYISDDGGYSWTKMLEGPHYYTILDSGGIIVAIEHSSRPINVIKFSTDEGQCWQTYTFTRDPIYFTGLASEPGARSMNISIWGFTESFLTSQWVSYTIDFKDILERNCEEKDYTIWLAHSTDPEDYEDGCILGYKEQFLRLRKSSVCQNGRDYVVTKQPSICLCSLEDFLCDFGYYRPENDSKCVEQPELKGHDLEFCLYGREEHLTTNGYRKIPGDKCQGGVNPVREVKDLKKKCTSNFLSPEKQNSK

T2: rat SORT1 (76-752)-His (rat, UniProt O54861 76-752)
T2 construct: range 76-752; Amine-coupled to CM5 chip for SPR
T2 sequence (looked up): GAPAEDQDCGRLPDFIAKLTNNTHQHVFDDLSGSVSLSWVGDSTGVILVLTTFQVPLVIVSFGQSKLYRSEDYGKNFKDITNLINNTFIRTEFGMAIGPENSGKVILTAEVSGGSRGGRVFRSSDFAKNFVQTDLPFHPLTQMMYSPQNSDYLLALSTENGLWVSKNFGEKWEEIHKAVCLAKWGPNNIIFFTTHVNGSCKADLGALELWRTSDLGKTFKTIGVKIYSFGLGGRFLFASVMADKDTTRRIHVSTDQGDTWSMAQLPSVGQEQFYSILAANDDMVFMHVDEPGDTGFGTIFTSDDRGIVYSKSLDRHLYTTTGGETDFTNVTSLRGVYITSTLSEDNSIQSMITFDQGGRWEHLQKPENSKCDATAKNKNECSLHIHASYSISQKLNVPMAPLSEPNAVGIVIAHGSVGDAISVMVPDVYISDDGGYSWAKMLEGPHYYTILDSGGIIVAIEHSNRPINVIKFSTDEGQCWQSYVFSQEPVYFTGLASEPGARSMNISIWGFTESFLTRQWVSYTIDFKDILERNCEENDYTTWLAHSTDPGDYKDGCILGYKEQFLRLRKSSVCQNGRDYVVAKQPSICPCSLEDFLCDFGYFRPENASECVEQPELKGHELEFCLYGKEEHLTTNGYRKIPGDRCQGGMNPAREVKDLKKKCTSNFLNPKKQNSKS

T3: mouse SORT1 (76-753)-His (mouse, UniProt Q6PHU5 76-753)
T3 construct: range 76-753; Amine-coupled to CM5 chip for SPR
T3 sequence (looked up): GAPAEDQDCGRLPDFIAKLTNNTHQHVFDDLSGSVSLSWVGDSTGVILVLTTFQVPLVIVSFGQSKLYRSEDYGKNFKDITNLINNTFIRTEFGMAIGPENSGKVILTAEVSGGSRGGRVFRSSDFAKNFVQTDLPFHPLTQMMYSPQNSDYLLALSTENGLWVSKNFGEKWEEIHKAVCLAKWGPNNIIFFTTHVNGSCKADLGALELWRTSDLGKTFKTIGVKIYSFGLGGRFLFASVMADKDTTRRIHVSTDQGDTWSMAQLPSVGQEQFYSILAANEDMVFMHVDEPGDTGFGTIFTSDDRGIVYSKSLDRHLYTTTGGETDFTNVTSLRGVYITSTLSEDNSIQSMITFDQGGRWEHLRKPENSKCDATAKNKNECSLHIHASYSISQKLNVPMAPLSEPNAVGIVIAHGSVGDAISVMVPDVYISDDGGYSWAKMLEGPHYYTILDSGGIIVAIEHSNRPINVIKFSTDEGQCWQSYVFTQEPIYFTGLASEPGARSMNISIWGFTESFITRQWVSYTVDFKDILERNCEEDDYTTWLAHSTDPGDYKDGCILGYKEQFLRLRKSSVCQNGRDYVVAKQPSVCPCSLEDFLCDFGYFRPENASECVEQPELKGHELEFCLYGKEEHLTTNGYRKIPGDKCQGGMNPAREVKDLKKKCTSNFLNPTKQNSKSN

B1: SORT1 peptide 2 (w/conjugation handles), unconjugated (peptide)
peptide: APRWDAPLRDPALRQ[Tle][Cba]
modifications: also: conjugation handles, not given here
notes: also called Arb-SAR-Q15
B2: SORT1 peptide 1 conjugate (peptide)
peptide: APRWDAPLRDPALRQLL
modifications: also: conjugated to siRNA, linker and handle not given here
notes: also called SORT1 peptide 1 siRNA conjugate
B3: SORT1 peptide 2 conjugate (peptide)
peptide: APRWDAPLRDPALRQ[Tle][Cba]
modifications: also: conjugated to siRNA targeting a housekeeping gene mRNA, linker and handle not given here
notes: also called SORT1 peptide 2 siRNA conjugate; Arb-SAR-Q15_PDC2

What was measured:
[1] = system: MDA-MB-231 xenograft; assay: MDA-MB-231 murine xenograft efficacy model; assay type: in vivo, mouse
Description: Murine xenograft experiments were conducted at WuXi AppTec and/or Charles River Laboratories and the care and use of animals was conducted in accordance with the regulations of the Association for Assessment and Accreditation of Laboratory Animal Care (AAALAC). MDA-MB-231 tumor cells (ATCC, Manassas, VA, cat #HTB-26) were grown and maintained in L15 medium supplemented with 10% heat inactivated fetal bovine serum, 1% Antibiotic-Antimycotic, and L-glutamine (2 mM) at 37° C. in an atmosphere in 5% CO2, 95% air. BALB/c Nude, female, 6-8 weeks, weighing approximately 18-22 g were purchased from Vital River Laboratory Animal Technology Co., LTD. Mice were inoculated subcutaneously at the right flank with MDA-MB-231 tumor cells (e.g., triple negative breast cancer cells) (10×10^6) in 0.2 mL of PBS with Matrigel (1:1) for tumor development. Animals were randomized and treatment was started when the average tumor volume reached approximately 150-200 mm^3 for the efficacy study. Dosing volume was adjusted based on body weight and was administered at 10 mL/Kg. […] Free MMAE payload was also tested, and similarly dissolved in 25 mM Histidine 10% sucrose pH 7 and one or more of the following doses, 0.6, 0.06 mg/kg, were administered to the mice i.v. at a QW×4 schedule. Tumor sizes were measured twice weekly in two dimensions using a caliper, and the volume in mm^3 calculated using the formula: V=0.5 a×b^2, where a and b are the long and short diameters of the tumor, respectively. TGI was calculated for each group using the formula: TGI (%)=[1−(Ti−T0)/(Vi−V0)]×100; where Ti is the average tumor volume of a treatment group on a given day, TO is the average tumor volume of the treatment group on the first day of treatment, Vi is the average tumor volume of the vehicle control group on the same day with Ti, and V0 is the average tumor volume of the vehicle group on the first day of treatment.
To characterize the effects of the MMAE payload alone, we included free MMAE at molar equivalency to PDCs, and tested at 0.6 and 0.06 mg/kg, as separate arms.
To characterize the effects of the MMAE payload alone, we included free MMAE at molar equivalency to PDCs, and tested at 0.6 mg/kg.

[2] = Murine hematotoxicity assay; assay type: in vivo, mouse; details: 3 mg/kg i.v. QW×4, BALB/c mice
Description: (§1) Murine hematotoxicity experiments were conducted at Charles River Laboratories and the care and use of animals was conducted in accordance with the regulations of the Association for Assessment and Accreditation of Laboratory Animal Care (AAALAC). Wild type BALB/c, female, 7-8 weeks, weighing approximately 18-22 g were randomized and dosed intravenously with control or test articles at a QW×4 schedule. Dosing volume was adjusted based on body weight and was administered at 10 mL/Kg. PDCs were dissolved in 25 mM Histidine 10% sucrose pH 7 and 3 mg/kg was administered. Free MMAE payload was also tested, and similarly dissolved in 25 mM Histidine 10% sucrose pH 7 and administered to the mice at a dose of […] by i.v. injection at a QW×4 schedule. 3 days following each dose, 150 μL of whole blood was collected via submandibular method and placed in K2 EDTA tubes stored on ice. Blood neutrophil counts were performed on the day of collection by IDEXX labs. Body weights were recorded twice a week until study endpoint.
as §1, with “As outlined in the material” for “Murine hematotoxicity experiments were conducted at Charles River Laboratories”, “methods” for “the care and use”, “Example 1, wild” for “animals was conducted in accordance with the regulations of the Association for Assessment and Accreditation of Laboratory Animal Care (AAALAC). Wild”, “PDCs were dissolved in 25 mM Histidine 10% sucrose pH 7 and 3 mg/kg was administered.” left out

[3] = molecular target: T1, cyno SORT1 (76-753)-His; assay: SPR (Biacore 8K), SORT1 on CM5 chip, unconjugated peptide with conjugation handles as analyte, 1:1 model
Description: (§2) SPR analysis was performed on Series S CM5 chips (Cytiva) using a Biacore 8K instrument (Cytiva). Sensorgrams were double-referenced by subtracting the response on both a reference flow cell and a blank sample. Human SORT1 (78-755)-His (Acrobiosystems), human SORT1 (78-755)-His(GenScript), mouse SORT1 (76-753)-His (R&D Systems), rat SORT1 (76-752)-His (GenScript), and cyno SORT1 (76-753)-His (GenScript) were diluted to 20-60 μg/mL in 10 mM sodium acetate pH 4.5 buffer and immobilized onto Series S CM5 chips using amine coupling at a flow rate of 10 μL/min for 45-100 s.
(§3) Ten start-up cycles and a blank cycle preceded each analysis run. The runs were performed by sequential injections of analyte (0-20 nM, 3-fold serial dilutions) with a 90 s association and 900 s dissociation at a flow rate of 30 μL/min, followed by two regeneration cycles with 2 M MgCl2 for 90 s at a flow rate of 10 μL/min. […] Five start-up cycles and a blank cycle preceded each analysis run. The runs were performed by sequential injections of analyte (0-25 nM) with a 150 seconds (s) association and 300 s dissociation at a flow rate of 30 μL/min, followed by a regeneration with 2 M MgCl₂ for 200 s at a flow rate of 10 μL/min. The kinetic rate constants (kₐ and kd) and the equilibrium binding constant (Kd) were calculated using a 1:1 kinetic binding model on the Biacore Insight Evaluation Software (Cytiva).
(§4) SPR analysis was performed on Series S CM5 chips (Cytiva) using a Biacore 8K instrument (Cytiva). Sensorgrams were double-referenced by subtracting the response on both a reference flow cell and a blank sample. The SPR analysis was conducted using four different SORT1 species: Human SORT1, Mouse SORT1, Rat SORT1, and Cyno SORT1. The samples were prepared according to the general procedure described above herein. The kinetic rate constants (ka and […]) and the equilibrium binding constant (Kd) were calculated using a 1:1 kinetic binding model on the Biacore Insight Evaluation Software (Cytiva).

[4] = molecular target: T2, rat SORT1 (76-752)-His; assay: as above
Description: as §2, §3, §4

[5] = molecular target: T1, cyno SORT1 (76-753)-His; assay: SPR (Biacore 8K), SORT1 on CM5 chip, siRNA-peptide conjugate as analyte, 1:1 model
Description: as §2, §3, §4

[6] = molecular target: T3, mouse SORT1 (76-753)-His; assay: as above
Description: as §2, §3, §4

[7] = molecular target: T2, rat SORT1 (76-752)-His; assay: as above
Description: as §2, §3, §4

Row | Molecule | Kd [5] [nM] | Kd [6] [nM] | Kd [7] [nM] | other results
1 | CC[C@H](C)[C@@H]([C@@H](CC(=O)N1CCC[C@H]1[C@H](OC)[C@@H](C)C(=O)N[C@H](C)[C@@H](O)c1ccccc1)OC)N(C)C(=O)[C@@H](NC(=O)[C@H](C(C)C)N(C)C(=O)OCc1ccc(NC(=O)[C@H](CCCNC(N)=O)NC(=O)[C@@H](NC(=O)CCCC(=O)NCCC(=O)N(C)CC(=O)N(C)CC(=O)N(C)CC(=O)N(C)CC(=O)N[C@@H](C)C(=O)N2CCC[C@H]2C(=O)N[C@@H](CCCNC(=N)N)C(=O)N[C@@H](Cc2c[nH]c3ccccc23)C(=O)N[C@@H](CC(=O)O)C(=O)N[C@@H](C)C(=O)N2CCC[C@H]2C(=O)N[C@@H](CC(C)C)C(=O)N[C@@H](CCCNC(=N)N)C(=O)N[C@@H](CC(=O)O)C(=O)N2CCC[C@H]2C(=O)N[C@@H](C)C(=O)N[C@@H](CC(C)C)C(=O)N[C@@H](CCCNC(=N)N)C(=O)N[C@@H](CCC(N)=O)C(=O)N[C@H](C(=O)N[C@@H](CC2CCC2)C(=O)O)C(C)(C)C)C(C)C)cc1)C(C)C [Arb-SAR-Q15-PDC] | – | – | – | tumor growth inhibited relative to vehicle ([1]; 3 mg/kg i.v. QW×4, day 22): 98%; body weight loss (Example 8) ([1]; PDCs 3 mg/kg, free MMAE at molar equivalency (0.6 mg/kg)): body weight loss tracked each other; blood neutrophil counts compared to vehicle or MMAE treatment [2]: reduced neutrophil counts
2 | B1 | – | – | – | Kd [3]: 0.152 nM; Kd [4]: 0.757 nM
3 | B2 | 16.8 | 30.2 | 49.2 | –
4 | B3 | 4.81 | 8.56 | 14.6 | –
